From PMC12217528, “Structural basis of topoisomerase targeting by delafloxacin” (Nature Communications, 2025)

Biological target: ParE30-ParC55 fusion protein (fused ParE-ParC cleavage core of S. pneumoniae topo IV) (Streptococcus pneumoniae)
Test: crystal structure; ParE30-ParC55 fusion protein (4.5 mg/ml) mixed with 18-mer V-site or E-site duplex DNA at 1:1.2 molar ratio, 2 mM delafloxacin, 10 mM MgCl2; sitting-drop vapour diffusion, 50 mM sodium cacodylate, 62.5 mM KCl, 7.5 mM MgCl2, 2.5% Tacsimate, 5.5–7% isopropanol, pH 6.5, 301 K; V18 with PEGylated graphene nucleant 2.0 Å, V18 and E18 without 2.4 Å

Question: How did the stoichiometry N turn out when “ParE30-ParC55 fusion protein (fused ParE-ParC cleavage core of S. pneumoniae topo IV) (enzyme)” was run?
Answer: 2
